# Target: cortactin SH3 domain (UniProt Q60598 488-546)
# Assay: NMR titration
# cortactin SH3 domain, sequence (Q60598 488-546): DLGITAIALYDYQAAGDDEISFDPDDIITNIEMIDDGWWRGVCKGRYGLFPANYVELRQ
row,Binder,Kd [µM]
1,EFTGPPQKPPRLGAQS [Pyk2-PRR3 peptide],650 ± 10
2,TAFQEPPPKPSRPKYRPPP [Pyk2-PRR2 peptide],40 ± 5
3,TAFQEPAPKASQAQYRPPP [Pyk2 super-mutant peptide],> 1000

# — paper doi:10.1101/2022.04.06.487297 (bioRxiv, 2022)
